Experimental data: the supplement of paper PMC9170038

System: MS2 coat protein
Assay: apparent KD of MS2 coat protein; designed switch direction (-1 OFF switch, 1 ON switch): -1; higher = weaker reporter binding
Summary of the method: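 Designed RNA switches with common flanks were made on Illumina chips by stalled E. coli RNA polymerase. Titration with SNAP-549-labelled MS2 coat protein doubled from 0.7 or 1.5 nM up to 3 µM. Apparent KD is each design's median over clusters after curve-fitting normalised fluorescence.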

[1] = input ligand: microRNA oligo, concentration not stated
[2] = Eterna round: R95, input ligand: FMN 200 uM
[3] = Eterna round: R95, input ligand: microRNA oligo, concentration not stated
[4] = Eterna round: R95, input ligand: none

Row | Sequence | apparent KD of MS2 coat protein (input ligand: FMN 200 uM) | apparent KD of MS2 coat protein (input ligand: none) | apparent KD of MS2 coat protein [1] | apparent KD of MS2 coat protein [2] | apparent KD of MS2 coat protein [3] | apparent KD of MS2 coat protein [4]
1 | AGGUAGUCAGGAUAUUAAGAGUAGCGGGAUAACGCUACGAGUGAGAAGGGACAUGAGGAUCACCCAUGUUUUAA [JR_Ex4_Sub071] (Eterna round: R97, puzzle: Exclusion 4) | 23.4 nM | 23.2 nM |  |  |  | 
2 | AGGUCCUUCUGGACACAUGAGGAUCACCCAUGUGAGGUCAGCGAGGAUAUCGGUCUAUAAUGUGACGAGAAGGCGCGGACCGAU [Ex NG3 #59] (Eterna round: R96, puzzle: Exclusion NG 3) | 16.8 nM | 16.4 nM | 11.3 nM |  |  | 
3 | AGGUGACUGGUGAGGAUAUCGUGUUCGAAAGAACGUGAGAAGGCACAUGAGGAUCACCCAUGUGAUCCUCAUCG [Omei Ex4B A30] (Eterna round: R97, puzzle: Brourd's mod of Exclusion 4) | 101 nM | 27 nM |  |  |  | 
4 | AGGUGUAGAGGAUAUACAGUGUAUUACAUGAGGAUCACCCAUGUCCUUCAAUGGGUAUCAGUAGAAGGCUACACCA [Omei Ex5 C1] (Eterna round: R97, puzzle: Exclusion 5) | 1060 nM | 485 nM |  |  |  | 
5 | AGGUGUAGAGGAUAUCCAUCCUCCCACAUGAGGAUCACCCAUGUCCUGGUCACCAAGGACGGAGAAGGCUACACCA [Omei Ex5 D21] (Eterna round: R97, puzzle: Exclusion 5) | 108 nM | 142 nM |  |  |  | 
6 | AGGUGUAGAGGAUAUCGAGUUCUUUACAUGAGGAUCACCCAUGUCCUGGGCACCCAGGACCGAGAAGGCUACACCA [Omei Ex5 D29] (Eterna round: R97, puzzle: Exclusion 5) | 50.3 nM | 32.8 nM |  |  |  | 
7 | AGGUGUAGAGGAUAUCUAUACUCCCACAUGAGGAUCACCCAUGUCCUGGUCACCAAGGACGGAGAAGGCUACACCA [Omei Ex5 D22] (Eterna round: R97, puzzle: Exclusion 5) | 130 nM | 68.3 nM |  |  |  | 
8 | AGGUGUAGAGGAUAUCUCUUCUCUCACAUGAGGAUCACCCAUGUCCUAAAGUCCAAGGAGAGAGAAGGCUACACCA [Omei Ex5 D4] (Eterna round: R97, puzzle: Exclusion 5) | 107 nM | 110 nM |  |  |  | 
9 | AGGUGUGAAGGAUAUAGCGUGGUCGACAUGAGGAUCACCCAUGUGAGAUGGUCGCCGGGUCUAGAAGGUUAGCUAA [Eternabot (L1) Solution 97] (Eterna round: R97, puzzle: Exclusion 5) | 82.5 nM | 97.2 nM |  |  |  | 
10 | AGGUUGUGAGGAUAUUAGUUAUAUGUUUGGAGGUGUAUGGCUGAGAAGGCACAUGAGGAUCACCCAUGUAGAUC [JR_Ex4_Sub049] (Eterna round: R97, puzzle: Exclusion 4) | 301 nM | 175 nM |  |  |  | 
11 | AGUAACCGUCACGAAAGUGAUGGUUACGCAAGCAAAUGUACAUGAGGAUCACCCAUGUCCUCAUUUGCUCGUCUUAU [Sensor 3 - 43] (puzzle: Sensor v3, turn-off variant 2) |  |  |  | 19.6 nM | 362 nM | 17.7 nM
12 | AGUAACCGUCACGAAAGUGAUGGUUACGCAAGCAAUGAAACAUGAGGAUCACCCAUGUCCUCAUUUGCUCGUCUUAU [Sensor 3 - 41] (puzzle: Sensor v3, turn-off variant 2) |  |  |  | 24.6 nM | 347 nM | 25.7 nM
13 | AGUAACUAUCACGAAAGUGAUAGUUACAAUAGCAAGUGAACAUGAGGAUCACCCAUGUCCUCGUUUGCUCGUCUUAU [Sensor 3 - 21] (puzzle: Sensor v3, turn-off variant 2) |  |  |  | 134 nM | 418 nM | 136 nM
14 | AGUAACUAUCACGAAAGUGAUAGUUACACAAGCAGUGAUACAUGAGGAUCACCCAUGUCCUCAUUUGCUCGUCUUAU [Sensor 3 - 28] (Eterna round: R96, puzzle: Sensor v3, turn-off variant 2) | 87.4 nM | 91.9 nM | 472 nM |  |  | 
15 | AGUAACUAUCACGAAAGUGAUAGUUACACAAGCAGUGAUACAUGAGGAUCACCCAUGUCCUCAUUUGCUCGUCUUAU [Sensor 3 - 28] (puzzle: Sensor v3, turn-off variant 2) |  |  |  | 83.6 nM | 698 nM | 91 nM
16 | AGUAAGCUAGGAUAUGCUUUGGGAAAGCAUUCCUUCGAUAAACUUGAGGAUCACCCAAGUAGAAGGAGCUUACU [jl-ex2.4.51 ViennaUCT mod] (Eterna round: R97, puzzle: Exclusion 2) | 22.9 nM | 12 nM |  |  |  | 
17 | AGUAAUGUAUAAGGAUAUCUCGCAAAUAAAGGCAGAGAAGGUAUACCCACUUGAGGAUCACCCAAGUCUCGUGUGCCUGGUGGA [Mutated MS2 EX1.30] (Eterna round: R96, puzzle: Exclusion NG 1) | 23 nM | 25.1 nM | 20.1 nM |  |  | 
18 | AGUACUAACACGAAAGUGUUAGUACAAUAAGCUUGUGACACAUGAGGAUCACCCAUGUCCUCAUAAGCUCGUCUUAU [salish99_TOv2_r3_046] (puzzle: Sensor v3, turn-off variant 2) |  |  |  | 23.9 nM | 656 nM | 25.6 nM
19 | AGUACUAACACGAAAGUGUUAGUACUAUAAGCUUGUGUUACAUGAGGAUCACCCAUGUCCUCAUAAGCUCGUCUUGU [Mat - Sensor v3 - Turn-off var 2 - D104] (puzzle: Sensor v3, turn-off variant 2) |  |  |  | 46.4 nM | 48.7 nM | 54.4 nM
20 | AGUACUAACACGAAGGUGUUAGUACAAUAAGCUUGUGAAACAUGAGGAUCACCCAUGUCCUCAUAAGCUCGUCUUAU [salish99_TOv2_r3_033] (puzzle: Sensor v3, turn-off variant 2) |  |  |  | 17.5 nM | 702 nM | 17.6 nM
21 | AGUACUAACACGAGAGUGUUAGUACAAUAAGCUUGUGGAACAUGAGGAUCACCCAUGUCCUCAUAAGCUCGUCUUAU [Mat - Sensor v3 - Turn-off var 2 - D99] (puzzle: Sensor v3, turn-off variant 2) |  |  |  | 15.2 nM | 70.3 nM | 13.4 nM
22 | AGUACUAACACGGUAGUGUUAGUACAAUAAGCUUGUGAAACAUGAGGAUCACCCAUGUCCUCAUAAGCUCGUCUUAU [salish99_TOv2_r3_057] (puzzle: Sensor v3, turn-off variant 2) |  |  |  | 17.6 nM | 370 nM | 15.3 nM
23 | AGUACUAACACGUAUGUGUUAGUACAAUAAGCUUGUGAAACAUGAGGAUCACCCAUGUCCUCAUAAGCUCGUCUUAU [salish99_TOv2_r3_066] (puzzle: Sensor v3, turn-off variant 2) |  |  |  | 18.1 nM | 764 nM | 15 nM
24 | AGUACUAACACGUCUGUGUUAGUACAAUAAGCUUGUGAAACAUGAGGAUCACCCAUGUCCUCAUAAGCUCGUCUUAU [salish99_TOv2_r3_079] (puzzle: Sensor v3, turn-off variant 2) |  |  |  | 17.2 nM | 749 nM | 16.1 nM
